Experimental findings from patent publication US20080105961A1, “Ligands of the Molecule Fit (Agt-121) and their Pharmaceutical Use” (priority 2004, published 2008) are described below.

Assay [1] concerns the target T1, FIT-PR (FIT proline-rich region) (Homo sapiens, UniProt Q9BQI5).
T1 construct: expressed in transfected cells
T1 sequence (Q9BQI5 with tags, fused parts or gaps N255T/I269V/G270A/P271T/S276A/V280A/L285P/N289S/A308T/K311T/T318A/S335T/T339A/P340S/N342I/A348T/L352P/P357S/T358A/DEL367-367/L371P/I397L/D402E/F403C/P432S/P434T/T437A/R454S/S455C/T456S): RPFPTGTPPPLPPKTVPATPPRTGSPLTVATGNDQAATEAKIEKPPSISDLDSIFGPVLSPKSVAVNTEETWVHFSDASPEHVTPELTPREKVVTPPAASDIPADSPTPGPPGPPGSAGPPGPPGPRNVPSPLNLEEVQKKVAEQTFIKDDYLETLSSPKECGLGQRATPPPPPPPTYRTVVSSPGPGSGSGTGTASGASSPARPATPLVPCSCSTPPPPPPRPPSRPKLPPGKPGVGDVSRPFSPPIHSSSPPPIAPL
As to the kind of experiment: Yeast two-hybrid screen of human brain cDNA library, bait FIT-PR. To be noted: clones listed highest to lowest interacting strength. In kind it is binding. The text has this: (§1) To investigate the mechanism by which FIT regulates energy balance, neural proteins that interact with FIT were identified. In order to perform these experiments, two truncated fragments of FIT were constructed to be used as baits in a yeast two-hybrid screen of a human brain cDNA library: one bait consisting of the N-terminal region plus the central proline-rich region, and the other bait consisting of the central proline-rich region alone. The inventors utilised a yeast two-hybrid system which incorporates modifications by Chevray and Nathans (1992), and Vidal et al. (1996) to screen a human brain cDNA library. FIT fragments were PCR amplified, purified and then cloned into an appropriate vector. Sense oligonucleotides for FIT-NP (5′-[…]-3′: SEQ ID NO:72), and FIT-PR (5′-[…]-3′: SEQ ID NO:73), with Sal1 restriction enzyme sites underlined, were used in conjunction with a common antisense oligonucleotide (5′-[…]-3′: SEQ ID NO:74), with the Not1 restriction enzyme site underlined.
(§2) Human brain cDNA inserts were prepared and cloned into the expression vector according to manufacturer's instructions.

The target in assay [2] is T2, FIT-NP (FIT N-terminal plus proline-rich region) (Homo sapiens, UniProt Q9BQI5).
T2 construct: expressed in transfected cells
T2 sequence (Q9BQI5 with tags, fused parts or gaps I33M/P40L/N43H/V56A/I186T/P191L/T195L/E211G/Q212H/I230V/T240A/N255T/I269V/G270A/P271T/S276A/V280A/L285P/N289S/A308T/K311T/T318A/S335T/T339A/P340S/N342I/A348T/L352P/P357S/T358A/DEL367-367/L371P/I397L/D402E/F403C/A409E/P432S/P434T/T437A/R454S/S455C/T456S): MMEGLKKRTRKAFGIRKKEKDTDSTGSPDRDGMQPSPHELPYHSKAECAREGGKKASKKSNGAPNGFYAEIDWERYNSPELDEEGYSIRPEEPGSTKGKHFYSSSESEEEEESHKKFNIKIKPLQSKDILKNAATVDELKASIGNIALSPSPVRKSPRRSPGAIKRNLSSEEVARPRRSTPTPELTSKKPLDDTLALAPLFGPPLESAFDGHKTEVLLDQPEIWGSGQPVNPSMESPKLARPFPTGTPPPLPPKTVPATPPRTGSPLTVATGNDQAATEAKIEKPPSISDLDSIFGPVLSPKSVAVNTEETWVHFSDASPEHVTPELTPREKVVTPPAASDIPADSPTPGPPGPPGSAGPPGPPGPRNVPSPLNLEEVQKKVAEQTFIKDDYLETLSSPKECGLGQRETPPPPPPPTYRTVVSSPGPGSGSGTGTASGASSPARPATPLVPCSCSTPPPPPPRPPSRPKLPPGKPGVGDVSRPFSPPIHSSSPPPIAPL
Put plainly: Yeast two-hybrid screen of human brain cDNA library, bait FIT-NP. In kind it is binding. The settings on record: for Number of clones: bait FIT-NP, human brain cDNA library, clones listed highest to lowest interacting strength; for strength of interaction with FIT: in yeast.
Source text: as §1, with “In” for “To investigate the mechanism by which FIT regulates energy balance, neural proteins that interact with FIT were identified. In”
as §2

B1: endophilin 1: FIT interacting protein isolated from a human brain cDNA library (protein)
chain: MSVAGLKKQFHKATQKVSEKVGGAEGTKLDDDFKEMERKVDVTSRAVMEIMTKTIEYLQPNPASRAKLSMINTMSKIRGQEKGPGYPQAEALLAEAMLKFGRELGDDCNFGPALGEVGEAMRELSEVKDSLDIEVKQNFIDPLQNLHDKDLREIQHHLKKLEGRRLDFDYKKKRQGKIPDEELRQALEKFDESKEIAESSMFNLLEMDIEQVSQLSALVQAQLEYHKQAVQILQQVTVRLEERIRQASSQPRREYQPKPRMSLEFPTGDSTQPNGGLSHTGTPKPSGVQMDQPCCRALYDFEPENEGELGFKEGDIITLTNQIDENWYEGMLHGHSGFFPINYVEILVALPH
modifications: left off: large carriers
Take B1: the Number of clones in assay [1] is 12; in assay [2] it was 14. Moreover, the “strength of interaction with FIT” value in assay [2] is on record as “very strongly”.

B2: endophilin 3: FIT interacting protein isolated from a human brain cDNA library (protein)
chain: MSVAGLKKQFHKASQLFSEKISGAEGTKLDDEFLDMERKIDVTNKVVAEILSKTTEYLQPNPAYRAKLGMLNTVSKIRGQVKTTGYPQTEGLLGDCMLKYGKELGEDSTFGNALIEVGESMKLMAEVKDSLDINVKQTFIDPLQLLQDKDLKEIGHHLKKLEGRRLDYDYKKKRVGKIPDEEVRQAVEKFEESKELAERSMFNFLENDVEQVSQLAVFIEAALDYHRQSTEILQELQSKLQMRISAASSVPRREYKPRPVKRSSSELNGVSTTSVVKTTGSNIPMDQPCCRGLYDFEPENQGELGFKEGDIITLTNQIDENWYEGMIHGESGFFPINYVEVIVPLPQ
modifications: left off: large carriers
As for B2, the Number of clones is given as 2 in assay [1] and 7 in assay [2]. In addition, the “strength of interaction with FIT” value in assay [2] is reported as “very strongly”.

B3: Homo sapiens regulatory factor X, 2 (RFX2): FIT interacting protein isolated from a human brain cDNA library (protein)
chain: MQNSEGGADSPASVALRPSAAAPPVPASPQRVLVQAASSNPKGAQMQPISLPRVQQVPQQVQPVQHVYPAQVQYVEGGDAVYTNGAIRTAYTYNPEPQMYAPSSTASYFEAPGGAQVTVAASSPPAVPSHSMVGITMDVGGSPIVSSAGAYLIHGGMDSTRHSLAHTSRSSPATLEMAIENLQKSEGITSHKSGLLNSHLQWLLDNYETAEGVSLPRSSLYNHYLRHCQEHKLDPVNAASFGKLIRSVFMGLRTRRLGTRGNSKYHYYGIRLKPDSPLNRLQEDTQYMAMRQQPMHQKPRYRPAQKTDSLGDSGSHSGLHSTPEQTMAVQSQHHQQYIDVSHVFPEFPAPDLGSFLLQDGVTLHDVKALQLVYRRHCEATVDVVMNLQFHYIEKLWLSFWNSKASSSDGPTSLPASDEDPEGAVLPKDKLISLCQCDPILRWMRSCDHILYQALVEILIPDVLRPVPSTLTQAIRNFAKSLEGWLTNAMSDFPQQVIQTKVGVVSAFAQTLRRYTSLNHLAQAARAVLQNTSQINQMLSDLNRVDFANVQEQASWVCQCEESVVQRLEQDFKLTLQQQSSLDQWASWLDSVVTQVLKQHAGSPSFPKAARQFLLKWSFYSSMVIRDLTLRSAASFGSFHLIRLLYDEYMFYLVEHRVAEATGETPIAVMGEFNDLASLSLTLLDKDDMGDEQRGSEAGPDARSLGEPLVKRERSDPNHSLQGI
modifications: left off: large carriers
In the case of B3, the figures for the Number of clones in assay [1] and in assay [2] were 1 and 10, respectively.
